In patent US20220010310A1, “An lncRNA integrates a DNA-PK-mediated DNA damage response and vascular senescence” (The Brigham and Women`s Hospital, Inc., priority 2018, published 2022):

Biological target: purified DNA-PK protein (Homo sapiens, UniProt P78527)
Test: DNA-PK kinase activity, ATP to ADP conversion (luminescence)
Format: biochemical
Conditions: 10 pmol transcript, ATP 150 μM
Source text: FIGS. 9A-I. Identification of DNA-PK as an SNHG12 interactor. (A) Illustration of lncRNA pulldown using nuclear protein extract from HUVECs for in vitro transcribed biotin-labeled SNHG12 or negative control LacZ followed by streptavidin beads pulldown. Protein eluate was sent for MS. (B) Protein hits for SNHG12 (n=2, two technical replicates each). (C) LncRNA pulldown of biotin-labeled SNHG12 compared to negative controls LacZ and antisense transcript for SNHG12 (n=3). (D) RT-qPCR analysis for intravenous delivery of biotinylated SNHG12 to the aorta (n=4 per group). P value was determined by Student's t test. […] P value was determined by Student's t test. (H) Purified DNA-PK protein was incubated with in vitro transcribed LacZ or SNHG12 transcript (10 pmol) together with ATP (150 μM) and luminescence was measured for detecting conversion to ADP. […] P value was determined by Student's t test. (I) DNA-PK protein was incubated for 1 hr with the DNA-PK kinase inhibitor NU7441 (1, 10, 100 μM) to assess DNA-PK kinase activity by luminescence (n=1). […]
To identify the functional consequences of the interaction of SNHG12 with DNA-PK, we assessed the effect of SNHG12 on DNA-PK's kinase activity (DNA-PKcs). Incubation of purified DNA-PK protein with in vitro transcribed SNHG12 assessed the ability of DNA-PKcs to convert ATP to ADP. […]

B1: SNHG12: T7 in vitro transcribed SNHG12 lncRNA transcript used in MST and DNA-PK kinase assays (nucleic acid, listed as Homo sapiens)
chain: TCTAGAGCTAGCGAATTCCTTTCTCCCCGCCGCATTCCCGGTGTCGACTTACTAGCTGCAAGCCTCTGCCTGCCTTCCTGCGCGCCGTTCCCCGCTAGTCGCTGCTGCTGGCGCGCACTCGCCGGGTTTTTCCTCCCACGGCCTCGAGATGGTGGTGAATGTGGCACGGAGGAGCCGGGCCTTCCAACCCGGTGGGCCCGAGCTCCGAAAGGCCCCCTCGGCAGTGAGAGGGGCGGGAGCCCGCGGGGGCCGCGCCCTTCTCTCGCTTCGGACTGCGCAACGCTGCGCTCTGGGCTGACAGGCGGATAAAACGGTCCCATCAAGACTGAGAAAAAGCACACCAGCTATTGGCACAGCGTGGGCAGTGGGGCCTACAGGATGACTGACTTAGTCTACAGAGATCCCGGCGTACTTAAGCAGATGAAGACTCTTAAGATGACAGAAGGTGATTTTTCTGGTGATCGAGGACTTCCGGGGTAATGACAGTGATGAAATGCAGGGGACCTGGTTGCCCCCAAGTTTCCTGGCAGTGTGTGATACTGAGGAGGTGAGCTTGTTTCTGGAGCTGTGCTTTAAGGTAAAGTTGATCAGCTTAATCCTCCTGATCCCTTTCCCATCGGATCTGAACACTGGTCTTGGTGGTCGTAAAAGGAGGAAAAGTAATAGTGAAGCTGGCCTAAATGTTGTAATCTGGTATATGGCATGTGGGCTAGTTTCAGACAGGTTTCAGAGATGGTTGGATCTCTGAAATTGTAAAATGAAGTATAATCTTAGGCTAAGGGAAGGATGCGTGTGAAGCTCTGGAGGTTGGTATAGTAATAGCTGACCTATTACTGCATTTGGGAGGGATCTGTCATAGCTTCCTTGCCTCTTAATTAAGGGTGGTGTTTTTTTCTTTTAGATTCATGTTACATGTAAAGCTGTCCTCATTTGTGACTATGGACCTATGGAGTTGGGACAATCTCTATGGGAAGCAGAAGGCAAGGACCCCGGTCATTTTAGGTAGAAACAACAGCATGCTAATGCAAAAAATTATGCAGTGTGCTACTGAACTTCAGAGGTGATCAATAAAAGAAGAATAAAAAGACTAATAAAAGTAGAATTCTGATCAGGATCC
- increase of DNA-PKcs kinase activity compared to the LacZ control: 2 fold
